Assay results published in US20150224182A1 (UNIVERSITY OF VIRGINIA PATENT FOUNDATION, published 2015).
Values belong to the binder of their own block, whether it stands above or below them. Non-standard residues stand in square brackets, D forms with d. No end group written: not given here. pT = C[C@@H](OP(=O)(O)O)[C@H](N)C(=O)O; pS = N[C@@H](COP(=O)(O)O)C(=O)O

How the values were obtained:
HLA-B*0702 = target: T1, HLA-B*0702 (human); experiment: HLA-B7 eluate MS; AML1; 3 means 6-25 copies/cell
T1 construct: also called HLA-B7

HLA-A*0201 [1] = target: T2, HLA-A*0201 (human); experiment: HLA-A2 binding affinity, method not described
T2 construct: also called HLA-A2

HLA B*0702 [2] = target: T3, HLA B*0702 (human); experiment: MS of peptides eluted from HLA; L/M column: empty
T3 construct: Class I MHC molecule of the cells from which the associated phosphopeptides were detected; also called HLA-B7

HLA-A*0201 [3] = target: T2, HLA-A*0201; experiment: HLA-A2 eluate MS; CLL2; 1 means <1 copy/cell
HLA-A*0201 [4] = target: T2, HLA-A*0201; experiment: HLA-A2 binding affinity
HLA-A*0201 [5] = target: T2, HLA-A*0201; experiment: competition binding assay on purified HLA-A*0201
HLA-A*0201 [6] = target: T2, HLA-A*0201; experiment: competition with iodinated [..] for purified HLA-A*0201 plus β2M, capture on W6/32 plates
HLA B*0702 [7] = target: T3, HLA B*0702; experiment: MS of peptides eluted from HLA; L/M column: M
HLA-A*0201 [8] = target: T2, HLA-A*0201; experiment: HLA-A2 eluate MS; CLL4; 1 means <1 copy/cell

Binder: QPR[pS]PGPDYSL [GFI1 phosphopeptide QPRsPGPDYSL]
binding result (HLA-B*0702): binds

Binder: IMDR[pT]PEKL (also called natural BCAR3pT130) [BCAR3 phosphopeptide IMDRtPEKL]
binding result (HLA-A*0201 [1]): binds

Binder: RPV[pS]PFQEL [RPVsPFQEL]
binding result (HLA B*0702 [2]): binds

Binder: KAK[pS]PAPGL [NCOR2 phosphopeptide KAKsPAPGL]
binding result (HLA-A*0201 [3]): binds

Further lines, results first:

fold enhancement of HLA-A2 binding affinity over pS33-βcatenin30-39 (HLA-A*0201 [4]): ~10 fold
fold higher HLA-A*0201 binding affinity than pS33-βcat30 (HLA-A*0201 [5]): 8 fold
IC50 (HLA-A*0201 [6]): 0.041 µg/mL
B1: pS33-βcat(V)30 (YLDsGIHSGV) (peptide)
peptide: YLD[pS]GIHSGV
notes: also called pS33-βcatenin30-39(V); modified phosphopeptide

binding result (HLA B*0702 [7]): binds
Binder: RPA[pS]PAAKL [RPAsPAAKL]

binding result (HLA-A*0201 [8]): binds
Binder: KMD[pS]FLDMQL [N4BP2 phosphopeptide KMDsFLDMQL]
